The source of these data is patent publication US20080219962.

Chain of myc-labeled Runx2 (chain, as listed by the source): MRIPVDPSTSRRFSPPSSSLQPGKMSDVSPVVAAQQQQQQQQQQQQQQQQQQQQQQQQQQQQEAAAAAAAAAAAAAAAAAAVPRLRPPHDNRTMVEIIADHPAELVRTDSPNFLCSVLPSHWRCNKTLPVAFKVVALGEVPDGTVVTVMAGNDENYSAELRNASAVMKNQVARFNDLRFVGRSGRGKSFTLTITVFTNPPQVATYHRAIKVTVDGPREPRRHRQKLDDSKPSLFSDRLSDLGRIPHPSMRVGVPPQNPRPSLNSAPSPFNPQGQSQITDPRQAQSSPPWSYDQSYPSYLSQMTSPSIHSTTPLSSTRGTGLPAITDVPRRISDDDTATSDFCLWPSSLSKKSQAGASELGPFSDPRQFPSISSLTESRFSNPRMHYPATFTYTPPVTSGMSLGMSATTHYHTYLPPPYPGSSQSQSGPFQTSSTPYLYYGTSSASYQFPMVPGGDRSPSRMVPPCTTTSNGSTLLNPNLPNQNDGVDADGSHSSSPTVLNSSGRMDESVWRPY
Chain of Smurf1 (Smad ubiquitin regulatory factor 1) (Q9HCE7 whole entry): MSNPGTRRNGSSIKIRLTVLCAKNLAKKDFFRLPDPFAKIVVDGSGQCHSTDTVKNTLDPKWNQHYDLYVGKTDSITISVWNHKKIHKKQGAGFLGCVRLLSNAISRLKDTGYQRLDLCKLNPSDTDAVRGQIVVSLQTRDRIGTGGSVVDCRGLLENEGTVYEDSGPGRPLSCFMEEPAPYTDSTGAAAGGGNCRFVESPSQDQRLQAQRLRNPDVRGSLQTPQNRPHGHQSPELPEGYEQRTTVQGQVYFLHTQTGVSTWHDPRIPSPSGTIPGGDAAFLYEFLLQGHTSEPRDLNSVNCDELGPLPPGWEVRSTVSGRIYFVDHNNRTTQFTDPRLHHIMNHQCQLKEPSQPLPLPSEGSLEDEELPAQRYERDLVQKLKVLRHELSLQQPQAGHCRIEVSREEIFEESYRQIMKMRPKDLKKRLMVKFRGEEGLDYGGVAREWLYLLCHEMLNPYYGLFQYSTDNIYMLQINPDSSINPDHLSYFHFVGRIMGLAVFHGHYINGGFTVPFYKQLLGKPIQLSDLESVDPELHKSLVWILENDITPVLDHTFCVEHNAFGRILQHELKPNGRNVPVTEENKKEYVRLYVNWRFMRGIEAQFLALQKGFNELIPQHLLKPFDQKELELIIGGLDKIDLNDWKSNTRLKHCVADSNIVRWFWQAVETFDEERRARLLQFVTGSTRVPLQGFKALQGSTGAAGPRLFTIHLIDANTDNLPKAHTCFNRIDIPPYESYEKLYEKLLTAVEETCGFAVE
Chain of myc-labeled HDAC5 (Q9UQL6 whole entry): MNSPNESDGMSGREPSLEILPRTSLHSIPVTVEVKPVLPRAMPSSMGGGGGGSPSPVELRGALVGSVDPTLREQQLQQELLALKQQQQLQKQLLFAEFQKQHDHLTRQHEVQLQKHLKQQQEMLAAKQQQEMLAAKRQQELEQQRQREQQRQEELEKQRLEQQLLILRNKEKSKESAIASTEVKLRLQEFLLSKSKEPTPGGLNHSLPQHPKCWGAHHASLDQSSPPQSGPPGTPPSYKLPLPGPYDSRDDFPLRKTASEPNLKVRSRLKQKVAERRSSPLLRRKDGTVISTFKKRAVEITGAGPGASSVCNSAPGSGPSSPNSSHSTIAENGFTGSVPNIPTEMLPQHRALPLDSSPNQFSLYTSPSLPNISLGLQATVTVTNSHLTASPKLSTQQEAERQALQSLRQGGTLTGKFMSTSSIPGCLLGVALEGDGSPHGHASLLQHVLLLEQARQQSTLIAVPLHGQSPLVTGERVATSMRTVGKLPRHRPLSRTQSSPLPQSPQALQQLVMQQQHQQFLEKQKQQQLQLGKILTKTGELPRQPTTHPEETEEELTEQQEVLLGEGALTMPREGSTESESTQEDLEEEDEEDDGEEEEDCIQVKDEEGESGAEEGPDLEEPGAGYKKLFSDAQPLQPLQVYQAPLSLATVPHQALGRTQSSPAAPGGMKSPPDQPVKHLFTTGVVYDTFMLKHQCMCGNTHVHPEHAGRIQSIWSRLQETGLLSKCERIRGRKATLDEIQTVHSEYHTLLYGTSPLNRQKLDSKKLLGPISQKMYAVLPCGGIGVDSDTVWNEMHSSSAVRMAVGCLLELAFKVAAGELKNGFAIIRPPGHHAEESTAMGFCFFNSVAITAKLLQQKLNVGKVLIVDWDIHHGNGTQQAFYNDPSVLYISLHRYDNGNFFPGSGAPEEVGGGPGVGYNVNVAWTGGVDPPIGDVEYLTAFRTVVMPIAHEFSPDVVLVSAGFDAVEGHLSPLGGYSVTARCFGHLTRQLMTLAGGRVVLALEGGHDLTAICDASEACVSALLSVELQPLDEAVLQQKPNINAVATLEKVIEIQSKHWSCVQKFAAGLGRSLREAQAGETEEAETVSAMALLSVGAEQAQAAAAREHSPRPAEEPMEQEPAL
Chain of Runx2-P415R (chain, as listed by the source P415R): as the sequence (chain, as listed by the source) above, with P415R counted along it
Chain of myc-labeled HDAC4 (P56524 whole entry): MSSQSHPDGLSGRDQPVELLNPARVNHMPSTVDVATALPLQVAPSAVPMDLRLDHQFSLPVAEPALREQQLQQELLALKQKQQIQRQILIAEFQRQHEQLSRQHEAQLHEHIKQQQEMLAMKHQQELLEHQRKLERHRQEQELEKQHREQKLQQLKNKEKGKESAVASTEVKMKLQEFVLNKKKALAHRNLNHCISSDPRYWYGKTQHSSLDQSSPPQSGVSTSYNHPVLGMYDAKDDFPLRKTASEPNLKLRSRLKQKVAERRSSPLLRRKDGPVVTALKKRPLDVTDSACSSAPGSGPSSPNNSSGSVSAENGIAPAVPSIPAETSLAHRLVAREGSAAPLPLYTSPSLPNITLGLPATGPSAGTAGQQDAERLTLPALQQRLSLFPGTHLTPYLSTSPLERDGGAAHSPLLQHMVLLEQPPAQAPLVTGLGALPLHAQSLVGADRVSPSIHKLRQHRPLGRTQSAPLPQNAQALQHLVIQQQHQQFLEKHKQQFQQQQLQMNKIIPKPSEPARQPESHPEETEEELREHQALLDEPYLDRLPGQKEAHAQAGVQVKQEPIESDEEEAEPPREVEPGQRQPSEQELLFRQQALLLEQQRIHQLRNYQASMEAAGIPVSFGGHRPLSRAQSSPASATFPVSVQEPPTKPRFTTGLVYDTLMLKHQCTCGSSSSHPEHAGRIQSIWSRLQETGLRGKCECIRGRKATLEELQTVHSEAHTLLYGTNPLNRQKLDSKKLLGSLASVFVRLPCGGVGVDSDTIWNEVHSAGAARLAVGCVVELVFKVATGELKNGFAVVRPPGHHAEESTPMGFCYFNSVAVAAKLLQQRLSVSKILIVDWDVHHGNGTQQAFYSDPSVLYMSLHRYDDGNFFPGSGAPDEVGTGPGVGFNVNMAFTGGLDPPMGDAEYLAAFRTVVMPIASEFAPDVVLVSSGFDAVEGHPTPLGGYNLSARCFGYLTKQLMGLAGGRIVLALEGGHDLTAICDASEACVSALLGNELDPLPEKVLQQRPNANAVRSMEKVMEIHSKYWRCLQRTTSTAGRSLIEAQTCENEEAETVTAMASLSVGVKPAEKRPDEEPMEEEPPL
Chain of Runx2-del-415-418 (chain, as listed by the source): as the sequence (chain, as listed by the source) above

As for myc-labeled HDAC5, the “Runx2 deacetylation (immunoprecipitation with anti-acetyl-lysine antibody, Western blot with anti-myc antibody)” value in the data set on myc-labeled Runx2 is “histone deacetylases 4 and 5 deacetylate Runx2”.

On to “Smurf1 (Smad ubiquitin regulatory factor 1)”, for which the “Smurf1-mediated degradation of Runx2 (Western blot of Runx2 level)” value is “Runx2-del-415-418 and Runx2-P415R were very stable, which means they were strongly resistant to Smurf1-mediated degradation” in the data set on Runx2-P415R; “Runx2-del-415-418 and Runx2-P415R were very stable, which means they were strongly resistant to Smurf1-mediated degradation” in the data set on Runx2-del-415-418.

In the case of myc-labeled HDAC4, the “Runx2 deacetylation (immunoprecipitation with anti-acetyl-lysine antibody, Western blot with anti-myc antibody)” value in the data set on myc-labeled Runx2 was “histone deacetylases 4 and 5 deacetylate Runx2”.
